Data taken from patent US20230295310A1 (ABCELLERA BIOLOGICS, published 2023).
Where a chain is given by its changes, count along the chain named.

B1: mAb 191 (antibody, V domains shown)
VH: QVQLVESGGGVVQPGRSLRLSCAASGFTFSGYGMHWVRQAPGKGLEWVAIIYYNGKKEYYADSVKGRFTISRDNSKNTLYLQMNSLRAEDTAVYYCTRGEGYNWFDPWGQGTLVTVSS
VL: EIVMTQSPATLSVSPGERATLSCRASQSVSSNLAWYQQKPGQAPRLLIYGASTRATGIPARFSGSGSGTDFTLTISSLQSEHFAVYYCQQYTNWPLTFGGGTKVEIK
notes: VH/VL only
B2: mAb 195 (antibody, V domains shown)
VH: B1 VH with V2E, P14S, A23V, T28K, N54D, K57N, E58K, E100A, P107S
VL: B1 VL with S30R, S31N, A51V, G57A, I58F, D70E, H82D, T92N
notes: VH/VL only
B3: mAb 206 (antibody, V domains shown)
VH: QVQLVESGGGVVQPGRSLRLSCAASGFTFSGYGMHWVRQAPGKGLEWVAIIYYNGNNRKYADSVKGRFTISRDNSKNTVSLQMNSLRVEDTAIYYCTRGDGYNWFVTWGQGTLVTVSS
VL: B1 VL with Q37H, A60V, D70E, H82D, T92N
notes: VH/VL only
B4: mAb 194 (antibody, V domains shown)
VH: QEQLVESGGGVVQPGGSLRLSCAASGFIFSGYGMHWVRQAPGKGLEWVAIIWYNGRKTYYAESVKGRFTISRDNSKNTLSLQMNSLRVEDTAVYYCTAGQGYNWFDPWGQGTLVTVSS
VL: B1 VL with D70E, H82D, Y91F, T92N, N93A, V104M
notes: VH/VL only
B5: mAb 199 (antibody, V domains shown)
VH: B1 VH with S71F, Q82H
VL: B1 VL with S31R, D70E, H82D, T92N
notes: VH/VL only
B6: mAb 204 (antibody, V domains shown)
VH: B1 VH with P14S, I51V, N54D, K57N, E58K, T97V
VL: B1 VL with A43V, D70Q, H82D, T92N
notes: VH/VL only
B7: mAb 201 (antibody, V domains shown)
VH: B1 VH
VL: B1 VL with N32S, D70E, H82D, T92N
notes: VH/VL only
B8: mAb 210 (antibody, V domains shown)
VH: B3 VH with V48L, I93M
VL: B1 VL with T20A, S30T, Q37H, A60V, D70E, H82D, T92N, I106N
notes: VH/VL only
B9: mAb 217 (antibody, V domains shown)
VH: B1 VH with S71F, L79V, N84K
VL: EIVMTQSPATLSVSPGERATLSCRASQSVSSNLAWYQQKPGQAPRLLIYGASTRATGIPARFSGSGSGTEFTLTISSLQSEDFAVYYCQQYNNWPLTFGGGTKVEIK
notes: VH/VL only
B10: mAb 198 (antibody, V domains shown)
VH: B4 VH with E2V, I28T, V88I, A98T
VL: B1 VL with D70E, H82D, Y91F, T92N, N93A, V104M
notes: VH/VL only
B11: mAb 218 (antibody, V domains shown)
VH: B3 VH with K65R
VL: B1 VL with Q37Y, A60V, D70E, H82D, T92N
notes: VH/VL only
B12: mAb 209 (antibody, V domains shown)
VH: B1 VH with I70V, T78M
VL: B1 VL with S28T, D70E, H82D, Q89K, T92N, W94R
notes: VH/VL only
B13: mAb 205 (antibody, V domains shown)
VH: B1 VH with R16K
VL: B1 VL with D70E, H82D, Q89K, T92N
notes: VH/VL only
B14: mAb 203 (antibody, V domains shown)
VH: B4 VH with E2V, I28T, S30R, W52Y
VL: B1 VL with D70E, H82D, Y91F, T92N, N93A, V104M
notes: VH/VL only
B15: mAb 197 (antibody, V domains shown)
VH: B4 VH with E2V, I28T, A98T
VL: B1 VL with D70E, H82D, Y91F, T92N, N93A, V104M
notes: VH/VL only
B16: mAb 226 (antibody, V domains shown)
VH: B3 VH
VL: B1 VL with V29I, Q37H, A60V, D70E, H82D, V85L, T92N
notes: VH/VL only
B17: mAb 215 (antibody, V domains shown)
VH: B3 VH with S25T
VL: B1 VL with Q37R, A60V, D70E, H82D, T92N
notes: VH/VL only; the VL is printed as a fragment of 18 residues only
B18: mAb 193 (antibody, V domains shown)
VH: B3 VH
VL: B1 VL with Q37H, A60V, D70E, E81D, H82D, T92N
notes: VH/VL only
B19: mAb 222 (antibody, V domains shown)
VH: B1 VH with L79V
VL: B1 VL with E1K, D70E, H82D, Q89K, T92N
notes: VH/VL only
B20: mAb 221 (antibody, V domains shown)
VH: B4 VH with E2V, I28T
VL: B1 VL with D70E, H82D, Y91F, T92N, N93A, V104M
notes: VH/VL only
B21: mAb 224 (antibody, V domains shown)
VH: B1 VH with T78M, S85G, V93I
VL: B1 VL with A19T, S31N, D70E, H82D, T92N
notes: VH/VL only
B22: mAb 192 (antibody, V domains shown)
VH: B1 VH with T112I
VL: B1 VL with D70E, H82D, Q89K, T92K
notes: VH/VL only
B23: mAb 216 (antibody, V domains shown)
VH: B1 VH
VL: B1 VL with D70E, H82D, Q89K, T92K
notes: VH/VL only

Columns and labels:
[1] = molecular target: T1, cynomolgus monkey CD3 expressed on cyno primary T cells (cynomolgus monkey, UniProt Q95LI5 22-198; Q95LI8 22-171; Q95LI7 23-181); experiment: flow cytometry, cyno primary T cells
T1 construct: whole, on cells; CD3 complex on purified cynomolgus monkey CD3 pan T cells; also called cyno CD3
Outline: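 Flow cytometric binding was measured after cells were incubated with antibody (25 nM, PBS+2% FBS) at 4° C for 30 minutes. Signals were normalized to isotype to yield FOI, with ≥10 scored positive.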

[2] = molecular target: T2, human CD3 expressed on cells (Jurkat cells; human primary T cells) (human, UniProt P07766 23-207; P04234 22-171; P09693 23-182); experiment: flow cytometry, 25 nM, human primary T cells
T2 construct: whole, on cells
Method: (§1) Purified antibodies were confirmed to bind CD3 expressed on cells using the CytoFLEX S or LX flow cytometers (Beckman Coulter). Antibodies were diluted to 25 nM in FACS buffer (PBS+2% FBS) and were incubated with CD3-expressing cells for 30 minutes at 4° C. […] The median fluorescence intensity of the binding signal for each antibody was normalized to the isotype control to obtain a fold over isotype value. An antibody with a fold over isotype (FOI) of ≥10 was considered to be positive for binding.

[3] = molecular target: T2, human CD3 expressed on cells (Jurkat …); experiment: flow cytometry, 25 nM, Jurkat cells
Method: as §1

T1 sequence (Q95LI5 22-198, chain 1 of 3): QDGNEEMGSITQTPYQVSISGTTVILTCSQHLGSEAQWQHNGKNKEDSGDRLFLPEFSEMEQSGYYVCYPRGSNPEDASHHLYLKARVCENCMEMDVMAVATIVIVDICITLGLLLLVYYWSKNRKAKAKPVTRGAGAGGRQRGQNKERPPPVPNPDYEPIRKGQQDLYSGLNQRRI
T1 sequence (Q95LI8 22-171, chain 2 of 3): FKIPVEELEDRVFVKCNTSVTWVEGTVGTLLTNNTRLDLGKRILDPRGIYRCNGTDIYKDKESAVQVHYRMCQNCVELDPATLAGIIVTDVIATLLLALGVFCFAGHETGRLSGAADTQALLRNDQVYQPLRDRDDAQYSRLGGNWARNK
T1 sequence (Q95LI7 23-181, chain 3 of 3): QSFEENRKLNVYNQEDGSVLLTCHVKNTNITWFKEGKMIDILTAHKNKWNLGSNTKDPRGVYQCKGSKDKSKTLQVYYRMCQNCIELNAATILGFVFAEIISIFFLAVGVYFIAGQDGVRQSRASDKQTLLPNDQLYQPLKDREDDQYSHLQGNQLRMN
T2 sequence (P07766 23-207, chain 1 of 3): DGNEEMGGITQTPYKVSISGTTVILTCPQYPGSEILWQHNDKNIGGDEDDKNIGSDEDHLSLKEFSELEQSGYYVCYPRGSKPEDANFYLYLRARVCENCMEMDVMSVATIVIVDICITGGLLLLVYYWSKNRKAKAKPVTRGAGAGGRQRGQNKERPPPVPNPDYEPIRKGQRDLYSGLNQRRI
T2 sequence (P04234 22-171, chain 2 of 3): as the sequence (Q95LI8 22-171, chain 2 of 3) above, with V5I, K15N, V20I, T32S, N33D, N34I, A64T, N74S, L83V, R141H counted along it
T2 sequence (P09693 23-182, chain 3 of 3): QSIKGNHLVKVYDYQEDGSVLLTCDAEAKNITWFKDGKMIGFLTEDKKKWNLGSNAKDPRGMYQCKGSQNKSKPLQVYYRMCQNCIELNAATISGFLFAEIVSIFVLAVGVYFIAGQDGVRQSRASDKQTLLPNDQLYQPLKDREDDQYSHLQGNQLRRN

| Binder | binding result [1] | Binding (FOI) [2] | Binding (FOI) [3] |
| --- | --- | --- | --- |
| B1 | no binding (tested: FOI <10 (FOI >=10 = positive); 25 nM) | 212 FOI | 170 FOI |
| B2 | no binding (tested: FOI <10 (FOI >=10 = positive); 25 nM) | 226 FOI | 170 FOI |
| B3 | no binding (tested: FOI <10 (FOI >=10 = positive); 25 nM) | 198 FOI | 186 FOI |
| B4 | no binding (tested: FOI <10 (FOI >=10 = positive); 25 nM) | 217 FOI | 199 FOI |
| B5 | no binding (tested: FOI <10 (FOI >=10 = positive); 25 nM) | 225 FOI | 172 FOI |
| B6 | no binding (tested: FOI <10 (FOI >=10 = positive); 25 nM) | 181 FOI | 162 FOI |
| B7 | no binding (tested: FOI <10 (FOI >=10 = positive); 25 nM) | 210 FOI | 166 FOI |
| B8 | no binding (tested: FOI <10 (FOI >=10 = positive); 25 nM) | 192 FOI | 168 FOI |
| B9 | no binding (tested: FOI <10 (FOI >=10 = positive); 25 nM) | 214 FOI | 173 FOI |
| B10 | no binding (tested: FOI <10 (FOI >=10 = positive); 25 nM) | 231 FOI | 182 FOI |
| B11 | no binding (tested: FOI <10 (FOI >=10 = positive); 25 nM) | 192 FOI | 179 FOI |
| B12 | no binding (tested: FOI <10 (FOI >=10 = positive); 25 nM) | 228 FOI | 186 FOI |
| B13 | no binding (tested: FOI <10 (FOI >=10 = positive); 25 nM) | 216 FOI | 180 FOI |
| B14 | no binding (tested: FOI <10 (FOI >=10 = positive); 25 nM) | 285 FOI | 201 FOI |
| B15 | no binding (tested: FOI <10 (FOI >=10 = positive); 25 nM) | 260 FOI | 183 FOI |
| B16 | no binding (tested: FOI <10 (FOI >=10 = positive); 25 nM) | 199 FOI | 176 FOI |
| B17 | no binding (tested: FOI <10 (FOI >=10 = positive); 25 nM) | 202 FOI | 167 FOI |
| B18 | no binding (tested: FOI <10 (FOI >=10 = positive); 25 nM) | 206 FOI | 163 FOI |
| B19 | no binding (tested: FOI <10 (FOI >=10 = positive); 25 nM) | 216 FOI | 180 FOI |
| B20 | no binding (tested: FOI <10 (FOI >=10 = positive); 25 nM) | 239 FOI | 181 FOI |
| B21 | no binding (tested: FOI <10 (FOI >=10 = positive); 25 nM) | 212 FOI | 181 FOI |
| B22 | no binding (tested: FOI <10 (FOI >=10 = positive); 25 nM) | 223 FOI | 176 FOI |
| B23 | no binding (tested: FOI <10 (FOI >=10 = positive); 25 nM) | 218 FOI | 182 FOI |
